Our source for the Kd, koff and kon values is patent publication US20250145694A1 (GUANGDONG FEIPENG BIOLOGICAL, published 2025).

Substitutions are numbered along the chain they refer to.

B1: Mutation 1-1 (antibody)
heavy: EVQMVESGGGLLKPGGSLKLSCAASGFTFSNYAMSWVRQTPEKRLEWVATISSGGSYSFYPDSVKGRFTISRDNAKNTLYLQMLSLRSEDTAMYYCARRDNYYGSSFMDYWGQGSSVTVSSAKTTPPSVYPLAPGSAAQTNSMVTLGCLVKGYFPEPVTVTWNSGSLSSGVHTFPAVLQSDLYTLSSSVTVPSSTWPSQTVTCNVAHPASSTKVDKKIVPRDCGCKPCICTVPEVSSVFIFPPKPKDVLTITLTPKVTCVVVDISKDDPEVQFSWFVDDVEVHTAQTKPREEQFNSTFRSVSELPIMHQDWLNGKEFKCRVNSAAFPAPIEKTISKTKGRPKAPQVYTIPPPKEQMAKDKVSLTCMITNFFPEDITVEWQWNGQPAENYKNTQPIMDTDGSYFVYSKLNVQKSNWEAGNTFTCSVLHEGLHNHHTEKSLSHSPG
light: DIQMTQTSSSLSASLGDRVTISCRASQEITNYLNWYQQKPDGTIKLLIYYTSRIHSGVSSRFSGSGSGTDYSLTISNLEQEDIATYFCQQGHTLPLTFDTGTKLELKRADAAPTVSIFPPSSEQLTSGGASVVCFLNNFYPKDINVKWKIDGSERQNGVLNSWTDQDSKDSTYSMSSTLTLTKDEYERHNSYTCEATHKTSTSPIVKSFNRNEC
notes: assembled FR/CDR/constant
B2: Mutation 1-10 (antibody)
heavy: B1 heavy with F29Y
light: B1 light with E28D
notes: assembled FR/CDR/constant
B3: Mutation 1-4 (antibody)
heavy: B1 heavy with F29Y, F59Y, Y103F, S106T
light: B1 light with H92N
notes: assembled FR/CDR/constant; Same printed sites as Mutation 1-40
B4: Mutation 1-6 (antibody)
heavy: B1 heavy with F29Y
light: B1 light with E28D, I54L, H92N, L94I
notes: assembled FR/CDR/constant
B5: Mutation 1-2 (antibody)
heavy: B1 heavy with F29Y, Y103P, S106T
light: B1 light with H92N, L94I
notes: assembled FR/CDR/constant
B6: Mutation 1-8 (antibody)
heavy: B1 heavy with F29Y, F59Y, Y103F
light: B1 light with L94I
notes: assembled FR/CDR/constant
B7: Mutation 1-9 (antibody)
heavy: B1 heavy with S106T
light: B1 light with E28D, I54L, H92N
notes: assembled FR/CDR/constant
B8: Mutation 1-5 (antibody)
heavy: B1 heavy with Y103F
light: B1 light
notes: assembled FR/CDR/constant
B9: Mutation 1-3 (antibody)
heavy: B1 heavy with F59Y, Y103P
light: B1 light with E28D, I54L
notes: assembled FR/CDR/constant
B10: Mutation 1-11 (antibody)
heavy: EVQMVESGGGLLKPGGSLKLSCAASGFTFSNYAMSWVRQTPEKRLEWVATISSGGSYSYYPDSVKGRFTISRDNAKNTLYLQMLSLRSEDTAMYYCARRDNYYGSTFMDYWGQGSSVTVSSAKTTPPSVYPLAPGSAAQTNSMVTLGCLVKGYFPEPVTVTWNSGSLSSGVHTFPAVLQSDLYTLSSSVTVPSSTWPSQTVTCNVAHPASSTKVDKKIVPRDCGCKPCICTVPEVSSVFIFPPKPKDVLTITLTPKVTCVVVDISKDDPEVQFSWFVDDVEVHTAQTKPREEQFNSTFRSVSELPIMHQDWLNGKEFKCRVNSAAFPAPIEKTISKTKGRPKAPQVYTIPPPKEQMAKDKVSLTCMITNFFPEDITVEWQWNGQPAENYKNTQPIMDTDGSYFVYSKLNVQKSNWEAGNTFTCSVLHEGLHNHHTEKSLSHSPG
light: B1 light with E28D, I54L, H92N, L94I
notes: assembled FR/CDR/constant
B11: Mutation 1-7 (antibody)
heavy: B1 heavy with F59Y, Y103F, S106T
light: B1 light with L94I
notes: assembled FR/CDR/constant

In this test the target is T1, CTNI quality control recombinant antigen (human, UniProt P19429 1-210, limits assumed).
T1 construct: Recombinant antigen produced by the applicant; also called CTNI quality control recombinant protein (antigen produced by the company); cardiac troponin I
T1 sequence (P19429 whole entry): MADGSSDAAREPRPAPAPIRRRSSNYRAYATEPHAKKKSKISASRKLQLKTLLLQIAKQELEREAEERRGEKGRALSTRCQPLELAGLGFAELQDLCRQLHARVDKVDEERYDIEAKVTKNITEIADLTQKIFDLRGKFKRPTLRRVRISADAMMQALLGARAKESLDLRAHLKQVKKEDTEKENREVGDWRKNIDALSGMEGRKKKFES
Nature of the test: BLI, antibody on AMC sensor, cTnI in solution. The method, then:
With an AMC sensor, the purified antibody was diluted to 10 μg/ml with PBST, and CTNI quality control recombinant protein (antigen produced by the company) was gradient diluted with PBST to 769.2 nmol/ml, 384.6 nmol/ml, 192.3 nmol/ml, 96.2 nmol/ml, 48.1 nmol/ml, 24 nmol/ml, 12 nmol/ml, and 0 nmol/ml.
On the technique in general: In BLI a coated tip is dipped into the sample, and binding shifts an interference pattern.
As a reminder, the Kd is the free concentration of one partner at which half of the binding sites on the other are occupied at equilibrium, for simple one-to-one binding. One may read the koff as a measure of how fast the partners let go of each other. In general, kon refers to the second-order rate constant of association. For B1, the equilibrium dissociation constant (Kd) is 3.47 nM, the off-rate constant (koff) stood at 0.000124 s⁻¹ and the kon came out at 35800 M⁻¹ s⁻¹.

On to B2, for which the Kd was determined as 5.05 nM, the off-rate constant (koff) came out at 0.000346 s⁻¹ and the kon is 68500 M⁻¹ s⁻¹.

For B3, the dissociation constant (Kd) came out at 7.1 nM, the koff came out at 0.00053 s⁻¹ and the on-rate (kon) came to 74600 M⁻¹ s⁻¹.

Consider B4, for which the Kd was 9.81 nM, the koff worked out at 0.000275 s⁻¹ and the kon is 28000 M⁻¹ s⁻¹.

Consider B5, for which the Kd was 2.43 nM, the off-rate (koff) amounted to 0.000129 s⁻¹ and the kon worked out at 53200 M⁻¹ s⁻¹.

In the case of B6, the Kd worked out at 6.81 nM, the koff was 0.000667 s⁻¹ and the kon is 98000 M⁻¹ s⁻¹.

With B7, the equilibrium dissociation constant (Kd) is 8.6 nM, the koff worked out at 0.000184 s⁻¹ and the kon was determined as 21400 M⁻¹ s⁻¹.

Take B8: the dissociation constant (Kd) turned out to be 0.83 nM, the off-rate constant (koff) was 0.000807 s⁻¹ and the kon was determined as 972000 M⁻¹ s⁻¹.

Regarding B9, the equilibrium dissociation constant (Kd) amounted to 4.58 nM, the off-rate constant (koff) is 5.73e-05 s⁻¹ and the kon was 12500 M⁻¹ s⁻¹.

On to B10, for which the Kd worked out at 4.4 nM, the off-rate constant (koff) came out at 4.75e-05 s⁻¹ and the kon was found to be 10800 M⁻¹ s⁻¹.

Regarding B11, the equilibrium dissociation constant (Kd) was determined as 4.71 nM, the off-rate (koff) was 0.000186 s⁻¹ and the on-rate (kon) came out at 39400 M⁻¹ s⁻¹.
